Assay results: the supplement of paper PMC10065799, “High-throughput profiling of sequence recognition by tyrosine kinases and SH2 domains using bacterial peptide display” (eLife, 2023)

Key:
c-Abl (mouse) = assay: phosphorylation enrichment, bacterial display (enrichment ratio); higher = better substrate or ligand; peptides without Tyr show the background
Fes = Fes (UniProt P07332); assay: as above
MERTK = MERTK (UniProt Q12866); assay: as above
Hck = Hck (UniProt P08631); assay: as above
Fer (mouse) = assay: as above
FGFR1 = FGFR1 (UniProt P11362); assay: as above
AncSZ = assay: as above
EPHB2 = EPHB2 (UniProt P29323); assay: as above
Jak2 = Jak2 (UniProt O60674); assay: as above
EPHB1 = EPHB1 (UniProt P54762); assay: as above
Fyn = Fyn (UniProt P06241); assay: as above
FGFR3 = FGFR3 (UniProt P22607); assay: as above
c-Src = assay: as above
c-Src SH2 = assay: SH2 binding enrichment of the phosphorylated peptide, bacterial display (enrichment ratio); higher = better substrate or ligand; peptides without Tyr show the background
SHP2-C SH2 = assay: as above
Grb2 SH2 = Grb2 SH2 (UniProt P62993); assay: as above
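Throughout, for SH2 binding enrichment of the phosphorylated peptide, bacterial display: peptide library displayed on the E. coli surface as eCPX fusions, selected cells deep-sequenced, score is each peptide's frequency after selection divided by its frequency in the input.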
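Throughout, for phosphorylation enrichment, bacterial display: 11-residue human phosphosite peptides and single-mutation variants displayed on the E. coli surface, counted by deep sequencing, each peptide's frequency after selection divided by its frequency in the unselected input library; frequency after pTyr selection over input frequency; kinase dosed for 20-30% of maximal phosphorylation in three min.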

Chain of Jak2 (O60674 whole entry, looked up): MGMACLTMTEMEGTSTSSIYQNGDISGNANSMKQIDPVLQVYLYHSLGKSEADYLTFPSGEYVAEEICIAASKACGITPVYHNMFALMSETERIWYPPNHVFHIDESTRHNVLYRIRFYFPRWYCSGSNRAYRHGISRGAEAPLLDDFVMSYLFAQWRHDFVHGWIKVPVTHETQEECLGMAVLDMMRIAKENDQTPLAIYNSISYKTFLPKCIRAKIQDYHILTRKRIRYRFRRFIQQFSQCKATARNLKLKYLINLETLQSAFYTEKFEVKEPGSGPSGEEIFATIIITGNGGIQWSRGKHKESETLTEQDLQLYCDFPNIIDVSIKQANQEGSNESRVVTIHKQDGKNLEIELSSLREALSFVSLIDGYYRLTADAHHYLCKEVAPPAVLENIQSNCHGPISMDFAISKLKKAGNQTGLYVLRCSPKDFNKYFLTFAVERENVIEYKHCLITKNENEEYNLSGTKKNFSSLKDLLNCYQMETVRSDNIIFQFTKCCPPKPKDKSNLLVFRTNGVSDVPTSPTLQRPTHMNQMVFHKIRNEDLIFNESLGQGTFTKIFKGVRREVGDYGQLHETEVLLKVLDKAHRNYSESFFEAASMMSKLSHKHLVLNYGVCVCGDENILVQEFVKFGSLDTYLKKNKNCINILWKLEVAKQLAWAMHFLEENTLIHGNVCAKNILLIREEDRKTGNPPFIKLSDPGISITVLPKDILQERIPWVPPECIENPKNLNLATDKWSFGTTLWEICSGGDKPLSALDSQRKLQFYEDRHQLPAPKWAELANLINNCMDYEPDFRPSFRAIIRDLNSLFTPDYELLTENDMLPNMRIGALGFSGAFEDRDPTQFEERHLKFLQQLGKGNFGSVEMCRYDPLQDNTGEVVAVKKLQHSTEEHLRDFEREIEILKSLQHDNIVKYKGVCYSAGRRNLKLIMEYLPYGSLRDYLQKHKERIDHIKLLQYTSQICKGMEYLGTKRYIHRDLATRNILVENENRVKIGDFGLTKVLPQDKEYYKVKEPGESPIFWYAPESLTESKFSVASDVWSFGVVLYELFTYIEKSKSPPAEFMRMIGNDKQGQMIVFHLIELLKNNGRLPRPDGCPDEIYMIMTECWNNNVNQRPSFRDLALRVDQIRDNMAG
Chain of FGFR3 (P22607 whole entry, looked up): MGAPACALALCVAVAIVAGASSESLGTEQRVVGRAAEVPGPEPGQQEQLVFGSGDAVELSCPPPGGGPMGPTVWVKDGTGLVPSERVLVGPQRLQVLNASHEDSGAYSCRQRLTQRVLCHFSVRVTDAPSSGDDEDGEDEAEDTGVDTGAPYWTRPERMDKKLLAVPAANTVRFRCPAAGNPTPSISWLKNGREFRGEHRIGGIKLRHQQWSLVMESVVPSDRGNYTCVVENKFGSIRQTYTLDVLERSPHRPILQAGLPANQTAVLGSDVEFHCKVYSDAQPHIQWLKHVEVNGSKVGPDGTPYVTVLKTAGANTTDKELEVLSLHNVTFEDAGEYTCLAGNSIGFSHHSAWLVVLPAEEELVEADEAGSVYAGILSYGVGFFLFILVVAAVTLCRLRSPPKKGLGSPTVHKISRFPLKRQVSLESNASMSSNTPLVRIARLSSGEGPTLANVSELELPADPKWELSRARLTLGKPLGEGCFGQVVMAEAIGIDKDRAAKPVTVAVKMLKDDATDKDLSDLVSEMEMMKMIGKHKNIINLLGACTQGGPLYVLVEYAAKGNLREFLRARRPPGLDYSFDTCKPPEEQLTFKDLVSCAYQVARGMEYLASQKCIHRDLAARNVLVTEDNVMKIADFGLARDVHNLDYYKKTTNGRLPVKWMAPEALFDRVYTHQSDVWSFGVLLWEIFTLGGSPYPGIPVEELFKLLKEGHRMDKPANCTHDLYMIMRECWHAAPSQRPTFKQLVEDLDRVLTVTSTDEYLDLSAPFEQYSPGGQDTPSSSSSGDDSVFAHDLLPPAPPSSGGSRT
Chain of Fes (P07332 whole entry, looked up): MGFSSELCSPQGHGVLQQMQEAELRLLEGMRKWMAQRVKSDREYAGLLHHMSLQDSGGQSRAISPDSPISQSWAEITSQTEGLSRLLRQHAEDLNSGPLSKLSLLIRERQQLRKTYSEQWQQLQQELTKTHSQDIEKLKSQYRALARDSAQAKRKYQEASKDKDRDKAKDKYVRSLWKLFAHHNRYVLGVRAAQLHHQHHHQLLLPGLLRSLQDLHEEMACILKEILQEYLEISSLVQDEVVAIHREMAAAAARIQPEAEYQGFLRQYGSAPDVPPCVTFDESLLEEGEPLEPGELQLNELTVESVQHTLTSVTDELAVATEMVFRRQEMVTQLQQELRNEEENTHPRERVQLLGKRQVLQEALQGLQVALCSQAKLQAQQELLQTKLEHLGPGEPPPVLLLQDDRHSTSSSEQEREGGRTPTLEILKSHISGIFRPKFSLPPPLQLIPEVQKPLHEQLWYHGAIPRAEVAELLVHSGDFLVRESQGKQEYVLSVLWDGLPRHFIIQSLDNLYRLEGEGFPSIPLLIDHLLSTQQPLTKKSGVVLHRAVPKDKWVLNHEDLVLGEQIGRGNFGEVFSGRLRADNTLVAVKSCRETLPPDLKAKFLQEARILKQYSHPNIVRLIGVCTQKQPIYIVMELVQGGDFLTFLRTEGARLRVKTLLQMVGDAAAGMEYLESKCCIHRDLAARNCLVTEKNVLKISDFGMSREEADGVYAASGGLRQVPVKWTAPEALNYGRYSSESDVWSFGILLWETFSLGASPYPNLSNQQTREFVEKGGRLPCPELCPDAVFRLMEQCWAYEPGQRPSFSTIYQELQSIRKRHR
Chain of MERTK (Q12866 whole entry, looked up): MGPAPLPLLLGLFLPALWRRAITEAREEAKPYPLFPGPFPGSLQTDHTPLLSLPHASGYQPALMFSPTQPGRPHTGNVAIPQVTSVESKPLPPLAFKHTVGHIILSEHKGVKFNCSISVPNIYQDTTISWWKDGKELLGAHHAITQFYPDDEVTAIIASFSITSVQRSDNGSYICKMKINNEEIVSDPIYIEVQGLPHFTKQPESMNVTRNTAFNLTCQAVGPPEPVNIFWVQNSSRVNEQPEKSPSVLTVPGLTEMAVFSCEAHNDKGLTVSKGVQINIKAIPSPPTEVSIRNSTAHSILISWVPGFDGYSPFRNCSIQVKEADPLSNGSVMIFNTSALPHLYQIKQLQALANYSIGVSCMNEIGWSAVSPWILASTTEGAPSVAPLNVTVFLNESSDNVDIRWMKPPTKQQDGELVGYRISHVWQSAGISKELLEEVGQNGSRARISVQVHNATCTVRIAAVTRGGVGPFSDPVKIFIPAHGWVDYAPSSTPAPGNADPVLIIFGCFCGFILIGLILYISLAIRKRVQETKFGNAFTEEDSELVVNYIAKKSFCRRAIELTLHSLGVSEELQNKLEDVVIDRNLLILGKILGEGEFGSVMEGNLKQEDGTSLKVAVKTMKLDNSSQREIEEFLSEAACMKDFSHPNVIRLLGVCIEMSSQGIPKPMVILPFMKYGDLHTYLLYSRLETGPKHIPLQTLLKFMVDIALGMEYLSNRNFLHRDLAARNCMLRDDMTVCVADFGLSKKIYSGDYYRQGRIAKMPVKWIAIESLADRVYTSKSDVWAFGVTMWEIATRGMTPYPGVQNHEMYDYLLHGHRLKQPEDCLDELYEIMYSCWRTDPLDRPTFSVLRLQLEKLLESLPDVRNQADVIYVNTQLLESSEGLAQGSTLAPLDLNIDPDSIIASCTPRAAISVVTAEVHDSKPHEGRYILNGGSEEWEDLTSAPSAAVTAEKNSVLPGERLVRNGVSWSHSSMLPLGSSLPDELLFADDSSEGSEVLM
Chain of Fyn (P06241 whole entry, looked up): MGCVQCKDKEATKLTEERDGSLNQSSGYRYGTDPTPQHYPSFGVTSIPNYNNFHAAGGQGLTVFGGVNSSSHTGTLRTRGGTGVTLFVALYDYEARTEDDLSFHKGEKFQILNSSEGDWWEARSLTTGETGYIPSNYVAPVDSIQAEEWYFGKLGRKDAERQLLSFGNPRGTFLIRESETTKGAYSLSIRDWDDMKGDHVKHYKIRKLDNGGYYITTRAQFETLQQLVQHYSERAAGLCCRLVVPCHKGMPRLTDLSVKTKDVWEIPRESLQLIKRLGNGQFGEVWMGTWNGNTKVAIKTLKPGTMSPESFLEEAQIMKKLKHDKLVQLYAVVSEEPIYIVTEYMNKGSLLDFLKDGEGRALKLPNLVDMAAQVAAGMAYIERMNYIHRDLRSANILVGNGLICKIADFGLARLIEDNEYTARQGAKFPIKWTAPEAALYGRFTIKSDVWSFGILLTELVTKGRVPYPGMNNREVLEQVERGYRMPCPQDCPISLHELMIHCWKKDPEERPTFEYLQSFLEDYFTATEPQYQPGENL
Chain of Hck (P08631 whole entry, looked up): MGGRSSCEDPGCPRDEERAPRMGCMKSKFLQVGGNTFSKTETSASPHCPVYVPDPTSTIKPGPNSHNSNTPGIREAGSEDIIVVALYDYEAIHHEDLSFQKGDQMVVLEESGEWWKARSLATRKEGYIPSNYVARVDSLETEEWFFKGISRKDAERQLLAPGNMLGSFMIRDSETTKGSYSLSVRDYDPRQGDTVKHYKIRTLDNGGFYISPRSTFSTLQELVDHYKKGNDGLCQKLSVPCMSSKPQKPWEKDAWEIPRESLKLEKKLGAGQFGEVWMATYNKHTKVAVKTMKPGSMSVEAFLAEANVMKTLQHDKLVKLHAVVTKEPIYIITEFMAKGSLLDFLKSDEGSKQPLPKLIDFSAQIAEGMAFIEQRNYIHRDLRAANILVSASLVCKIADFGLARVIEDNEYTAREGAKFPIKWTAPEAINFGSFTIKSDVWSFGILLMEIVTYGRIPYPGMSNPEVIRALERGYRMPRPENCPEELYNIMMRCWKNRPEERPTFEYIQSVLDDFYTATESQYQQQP

| SH2 binding enrichment (c-Src SH2) | SH2 binding enrichment (SHP2-C SH2) | SH2 binding enrichment (Grb2 SH2) | Sequence | phosphorylation enrichment (c-Abl (mouse)) | phosphorylation enrichment (Fes) | phosphorylation enrichment (MERTK) | phosphorylation enrichment (Hck) | phosphorylation enrichment (Fer (mouse)) | phosphorylation enrichment (FGFR1) | phosphorylation enrichment (AncSZ) | phosphorylation enrichment (EPHB2) | phosphorylation enrichment (Jak2) | phosphorylation enrichment (EPHB1) | phosphorylation enrichment (Fyn) | phosphorylation enrichment (FGFR3) | phosphorylation enrichment (c-Src) |
| --- | --- | --- | --- | --- | --- | --- | --- | --- | --- | --- | --- | --- | --- | --- | --- | --- |
| 1.03 | 0.704 | 1.1 | ETKKQYNSFTY [TMED3_Y85_D86N] | 0.435 | 0.753 | 0.463 | 0.423 | 0.434 | 0.496 | 0.617 | 0.434 | 0.54 | 0.436 | 0.592 | 0.455 | 0.491 |
| 0.466 | 0.488 | 0.717 | NGVSYYINLCQ [IGF2R_Y2025] | 0.916 | 1.38 | 0.417 | 0.581 | 0.548 | 0.525 | 1.19 | 0.548 | 1.38 | 0.787 | 0.449 | 1.04 | 0.374 |
| 0.808 | 1.29 | 1.58 | RFLFFYSFLLK [PTEN_Y178_V175L_YF] | 1.51 | 1.78 | 0.782 | 0.631 | 0.765 | 0.885 | 2.12 | 0.574 | 1.53 | 0.984 | 0.79 | 0.754 | 1.41 |
| 0.413 | 0.606 | 0.825 | SRGLAYPARPA [LEMD2_Y122] | 0.386 | 0.419 | 0.339 | 0.339 | 0.288 | 0.34 | 0.359 | 0.332 | 0.401 | 0.328 | 0.331 | 0.266 | 0.335 |
| 3 | 0.719 | 0.974 | HKLSSYEFDFE [BTK_Y40_Y39S_YF] | 1.43 | 1.51 | 0.865 | 0.565 | 0.664 | 0.889 | 1.83 | 0.75 | 2.13 | 0.902 | 0.777 | 0.844 | 1.09 |
| 0.481 | 0.757 | 0.882 | GIVEDYRPRFY [ACVRL1_Y421_P424R] | 0.585 | 0.952 | 0.674 | 0.537 | 0.519 | 0.409 | 0.7 | 0.615 | 0.619 | 0.375 | 0.447 | 0.521 | 0.464 |
| 3.84 | 2.19 | 14.2 | SLAARYYNWVS [FLT4_Y1230] | 0.933 | 1.15 | 5.97 | 0.569 | 0.817 | 5.38 | 1.06 | 0.83 | 1.48 | 0.756 | 0.512 | 3.55 | 0.746 |
| 0.449 | 0.575 | 0.577 | TDGIAYEFRVT | 0.933 | 1.51 | 0.403 | 0.49 | 0.639 | 0.528 | 1.36 | 0.582 | 1.37 | 0.608 | 0.487 | 0.916 | 0.491 |
| 0.766 | 0.645 | 0.777 | GTYEDYVEGLR [MYL6_Y89] | 0.748 | 1.22 | 0.513 | 0.726 | 0.579 | 0.617 | 1.31 | 1.19 | 0.885 | 1.31 | 1.14 | 0.743 | 1.43 |
| 1.76 | 10.7 | 0.834 | SSVAGYACLAF [MVD_Y131_A128V_YF] | 0.949 | 1.21 | 0.631 | 0.556 | 0.511 | 0.516 | 0.903 | 0.537 | 0.961 | 0.562 | 0.478 | 0.792 | 0.519 |
| 0.866 | 1.16 | 1.05 | CTTIHKNYMCN [TP53_Y234_Y234K] | 0.603 | 0.792 | 0.484 | 0.409 | 0.406 | 0.499 | 0.733 | 0.503 | 0.702 | 0.515 | 0.395 | 0.56 | 0.404 |
| 0.815 | 0.872 | 1.09 | TRSYKCLLLSM [NF1_Y491_Y491C] | 0.637 | 0.94 | 0.434 | 0.441 | 0.402 | 0.375 | 0.979 | 0.487 | 0.784 | 0.486 | 0.425 | 0.619 | 0.401 |
| 0.615 | 1.08 | 1.03 | VRSTEYPCAGL | 0.611 | 0.798 | 0.362 | 0.338 | 0.292 | 0.447 | 0.586 | 0.483 | 0.713 | 0.554 | 0.397 | 0.497 | 0.471 |
| 0.649 | 0.671 | 1.37 | EEEFEYMNRRR [ERBB3_Y1199_D1194E_YF] | 0.808 | 1.24 | 0.724 | 0.569 | 0.408 | 0.554 | 1.59 | 0.532 | 1.19 | 0.693 | 0.515 | 0.767 | 0.608 |

| Sequence | SH2 binding enrichment (c-Src SH2) | SH2 binding enrichment (SHP2-C SH2) | SH2 binding enrichment (Grb2 SH2) | phosphorylation enrichment (c-Abl (mouse)) | phosphorylation enrichment (Fes) | phosphorylation enrichment (MERTK) | phosphorylation enrichment (Hck) | phosphorylation enrichment (Fer (mouse)) | phosphorylation enrichment (FGFR1) | phosphorylation enrichment (AncSZ) | phosphorylation enrichment (EPHB2) | phosphorylation enrichment (Jak2) | phosphorylation enrichment (EPHB1) | phosphorylation enrichment (Fyn) | phosphorylation enrichment (FGFR3) | phosphorylation enrichment (c-Src) |
| --- | --- | --- | --- | --- | --- | --- | --- | --- | --- | --- | --- | --- | --- | --- | --- | --- |
| SETDDYAEIID [PTK2_Y397] | 0.561 | 0.627 | 1.04 | 1.05 | 1.6 | 0.625 | 0.702 | 0.688 | 0.748 | 1.53 | 0.838 | 1.57 | 0.877 | 0.573 | 1.01 | 0.744 |
